According to publication PMC11154737:

Molecular target: Streptolysin O (SLO), wild type, full length (Streptococcus pyogenes) (UniProt P0DF96)
Assay: ELISA

UniProt P0DF96, sequence (P0DF96 34-571): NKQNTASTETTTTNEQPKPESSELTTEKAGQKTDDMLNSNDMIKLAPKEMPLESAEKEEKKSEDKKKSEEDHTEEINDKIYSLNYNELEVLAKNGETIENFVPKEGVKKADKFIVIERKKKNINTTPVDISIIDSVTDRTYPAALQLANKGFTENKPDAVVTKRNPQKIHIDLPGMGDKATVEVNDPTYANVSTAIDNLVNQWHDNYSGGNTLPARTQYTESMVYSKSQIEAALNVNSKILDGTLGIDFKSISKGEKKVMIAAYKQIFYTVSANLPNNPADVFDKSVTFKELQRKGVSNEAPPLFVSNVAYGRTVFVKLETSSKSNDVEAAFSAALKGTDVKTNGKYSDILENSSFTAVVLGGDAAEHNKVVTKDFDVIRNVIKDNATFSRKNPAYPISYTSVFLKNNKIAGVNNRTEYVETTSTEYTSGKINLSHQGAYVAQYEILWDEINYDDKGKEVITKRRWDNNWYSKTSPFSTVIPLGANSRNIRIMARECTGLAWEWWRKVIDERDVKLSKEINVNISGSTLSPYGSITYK

Substance: murine neutralizing monoclonal antibody (nAb) against Streptolysin O, Abcam AB23501
- Kd: 1.12 nM
